Laboratory results reported in article PMC9276669, “Purification, characterization, and preliminary serial crystallography diffraction advances structure determination of full-length human particulate guanylyl cyclase A receptor” (Scientific Reports, 2022).
“And” between values parts separate entries of the source, which are not always exact repeats. Equal values may be shown once.

Target: the molecule itself
Test: SEC; Superose 6 Increase 10/300 GL, 50 mM HEPES-NaOH pH 7.5, 150 mM NaCl, 5 mM DTT, 10% glycerol, 0.05% DDM, 0.01% CHS, 4 °C; more concentrated injected sample (about 300 uL); sizes by comparison with five standard proteins; monomer to tetramer

B1: full-length human particulate guanylyl cyclase A receptor (pGC-A) (receptor, UniProt P16066 33-1061, looked up)
chain: GNLTVAVVLPLANTSYPWSWARVGPAVELALAQVKARPDLLPGWTVRTVLGSSENALGVCSDTAAPLAAVDLKWEHNPAVFLGPGCVYAAAPVGRFTAHWRVPLLTAGAPALGFGVKDEYALTTRAGPSYAKLGDFVAALHRRLGWERQALMLYAYRPGDEEHCFFLVEGLFMRVRDRLNITVDHLEFAEDDLSHYTRLLRTMPRKGRVIYICSSPDAFRTLMLLALEAGLCGEDYVFFHLDIFGQSLQGGQGPAPRRPWERGDGQDVSARQAFQAAKIITYKDPDNPEYLEFLKQLKHLAYEQFNFTMEDGLVNTIPASFHDGLLLYIQAVTETLAHGGTVTDGENITQRMWNRSFQGVTGYLKIDSSGDRETDFSLWDMDPENGAFRVVLNYNGTSQELVAVSGRKLNWPLGYPPPDIPKCGFDNEDPACNQDHLSTLEVLALVGSLSLLGILIVSFFIYRKMQLEKELASELWRVRWEDVEPSSLERHLRSAGSRLTLSGRGSNYGSLLTTEGQFQVFAKTAYYKGNLVAVKRVNRKRIELTRKVLFELKHMRDVQNEHLTRFVGACTDPPNICILTEYCPRGSLQDILENESITLDWMFRYSLTNDIVKGMLFLHNGAICSHGNLKSSNCVVDGRFVLKITDYGLESFRDLDPEQGHTVYAKKLWTAPELLRMASPPVRGSQAGDVYSFGIILQEIALRSGVFHVEGLDLSPKEIIERVTRGEQPPFRPSLALQSHLEELGLLMQRCWAEDPQERPPFQQIRLTLRKFNRENSSNILDNLLSRMEQYANNLEELVEERTQAYLEEKRKAEALLYQILPHSVAEQLKRGETVQAEAFDSVTIYFSDIVGFTALSAESTPMQVVTLLNDLYTCFDAVIDNFDVYKVETIGDAYMVVSGLPVRNGRLHACEVARMALALLDAVRSFRIRHRPQEQLRLRIGIHTGPVCAGVVGLKMPRYCLFGDTVNTASRMESNGEALKIHLSSETKAVLEEFGGFELELRGDVEMKGKGKVRTYWLLGERGSSTRG
notes: transmembrane domain at residues 474-495; no TEV cleavage step is described; Found as monomer and as tetramer, depending on protein concentration; also called Particulate Guanylyl Cyclase Receptor A; natriuretic peptide receptor A; source: also on whole transfected Sf9 cells
  stoichiometry N: 4 and 2
